Source: article PMC9852224

Tests used:
BAK = BAK (UniProt Q16611); test: FLAG co-immunoprecipitation, immunoblot; settings: reference: WT-FLAG-MCL-1; sites T163
Noxa = Noxa (UniProt Q13794); test: FLAG co-immunoprecipitation, immunoblot; settings: reference: WT-FLAG-MCL-1; sites T163
[1] = molecular target: Mule (preparation of Supplemental Figure 3D, not told) (UniProt Q7Z6Z7)

Row | binding against the reference (BAK) | binding against the reference (Noxa) | stoichiometry N [1] | Substance
1 | lost | lost |  | Mcl-1 (from UniProt Q07820) T163A-FLAG-MCL-1
2 |  |  | 2 | Mule (preparation of Supplemental Figure 3D, not told) (from UniProt Q7Z6Z7 1-4374) (natural protein)
